Results taken from article PMC8232969 (Cell, 2021).

Target: SARS-CoV-2 Spike-2P (stabilized S ectodomain trimer) (SARS-CoV-2, UniProt P0DTC2)
Assay: cryo-EM structure

B1: DH1047 Fab (Fab, V domains shown)
VH: QVQLVQSGAEVKKPGASVQVSCQASANTFTNHYIHWVRQAPGQGLEWMGIIYPTGGNTIYAQGFQGRVTMTRDTSLNTIYLELSSLRSEDTAVYYCARDVRVDDSWSGYDLLSGGTYFDYWGQGTLVTVSS
VL: not shown
B1 was tested, and the “stoichiometry N” value was 3 Fabs per S-2P trimer.

B2: DH1041 Fab (Fab, V domains shown)
VH: EVQLVESGGGLVQPGGSLRLSCAASGVTFSSYWMSWVRQAPGKGLEWVANIRQDGSEKYSVDSVKGRFTISRDNAKNSLYLQMNSLRAEDTAVYYCARARRADNSGYYGFHFDCWGQGTLVTVSS
VL: QSVLTQPPSVSGAPGQRVTISCTGSSSNIGAGYDVHWYQQLPGTAPKLLIYGNNNRPSGVPDRFSDSKSGTSASLAITRLQAEDEADYYCQSYDSSLSGWVFGGGTKLTVL
B2 was tested, and the “stoichiometry N” value was 3 Fabs per S-2P trimer.
